T1: soluble αvβ6 (UniProt P06756 31-992; P18564 22-709, Biotinylated in the blocking ELISA of FIG. 7; the biotin sites are not stated.)
T1 alpha: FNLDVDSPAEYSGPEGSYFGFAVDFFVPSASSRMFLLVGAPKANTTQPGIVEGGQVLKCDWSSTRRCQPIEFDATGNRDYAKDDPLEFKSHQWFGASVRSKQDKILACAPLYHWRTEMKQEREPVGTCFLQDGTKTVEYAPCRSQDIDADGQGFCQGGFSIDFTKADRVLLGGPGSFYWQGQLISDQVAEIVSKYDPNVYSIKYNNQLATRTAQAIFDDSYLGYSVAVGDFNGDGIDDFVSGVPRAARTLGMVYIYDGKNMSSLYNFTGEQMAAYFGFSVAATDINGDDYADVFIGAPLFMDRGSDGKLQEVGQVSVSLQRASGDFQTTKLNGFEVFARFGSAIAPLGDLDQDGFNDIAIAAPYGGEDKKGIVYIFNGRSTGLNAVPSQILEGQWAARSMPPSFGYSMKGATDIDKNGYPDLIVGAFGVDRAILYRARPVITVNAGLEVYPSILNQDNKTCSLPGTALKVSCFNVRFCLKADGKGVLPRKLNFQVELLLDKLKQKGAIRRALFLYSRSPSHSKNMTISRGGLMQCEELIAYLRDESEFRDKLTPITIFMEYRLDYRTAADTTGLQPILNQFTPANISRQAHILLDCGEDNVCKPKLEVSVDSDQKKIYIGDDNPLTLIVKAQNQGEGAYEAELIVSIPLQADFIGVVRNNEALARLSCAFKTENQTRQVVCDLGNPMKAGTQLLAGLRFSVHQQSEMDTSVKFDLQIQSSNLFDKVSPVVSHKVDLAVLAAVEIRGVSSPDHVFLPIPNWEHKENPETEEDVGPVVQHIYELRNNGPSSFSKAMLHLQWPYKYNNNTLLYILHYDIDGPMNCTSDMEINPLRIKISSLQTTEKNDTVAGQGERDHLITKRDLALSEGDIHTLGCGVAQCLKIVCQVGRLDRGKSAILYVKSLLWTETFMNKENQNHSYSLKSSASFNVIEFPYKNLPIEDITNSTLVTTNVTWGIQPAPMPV
T1 beta: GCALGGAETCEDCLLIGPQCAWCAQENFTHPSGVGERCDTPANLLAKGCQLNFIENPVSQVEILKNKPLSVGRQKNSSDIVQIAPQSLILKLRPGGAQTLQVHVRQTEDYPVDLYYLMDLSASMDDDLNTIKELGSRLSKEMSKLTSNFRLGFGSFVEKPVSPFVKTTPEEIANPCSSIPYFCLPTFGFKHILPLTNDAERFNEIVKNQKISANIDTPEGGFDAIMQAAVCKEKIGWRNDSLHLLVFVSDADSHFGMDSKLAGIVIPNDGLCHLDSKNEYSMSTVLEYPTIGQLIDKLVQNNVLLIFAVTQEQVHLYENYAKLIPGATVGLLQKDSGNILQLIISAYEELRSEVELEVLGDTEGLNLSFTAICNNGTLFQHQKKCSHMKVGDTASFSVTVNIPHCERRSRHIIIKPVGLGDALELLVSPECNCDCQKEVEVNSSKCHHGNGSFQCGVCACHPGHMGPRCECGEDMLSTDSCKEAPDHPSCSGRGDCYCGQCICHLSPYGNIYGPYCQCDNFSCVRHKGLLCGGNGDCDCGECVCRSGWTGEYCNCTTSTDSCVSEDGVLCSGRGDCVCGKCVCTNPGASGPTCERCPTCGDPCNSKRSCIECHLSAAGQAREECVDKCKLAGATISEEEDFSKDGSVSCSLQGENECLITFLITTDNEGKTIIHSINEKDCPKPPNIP


Molecular target: T1, soluble αvβ6
Test: binding ELISA

| EC50 [µg/mL] | Binder |
| --- | --- |
| 0.036 | chimeric 3G9 antibody (ch3G9) (antibody, V domains shown) VH: EVMLVESGGGLVQPGGSLRLSCAASGFTFSRYVMSWVRQAPGKGLEWVASISSGGRMYYPDTVKGRFTISRDSAKNSLYLQMNSLRAEDTAVYYCARGSIYDGYYVFPYWGQGTLVTVSS VL: DIVLTQSPATLSLSPGERATLSCRASQSVSTSSYSYMYWYQQKPGQAPRFLIKYASNLESGIPARFSGSGSGTDFTLTISSLEPEDFAVYYCQHNWEIPFTFGGGTKVEIK |
| 0.043 | chimeric 3G9 antibody containing a N to S substitution within the N-linked glycosylation site in the first CDR of the light chain (ch3G9S) (antibody, V domains shown) VH: EVMLVESGGGLVQPGGSLRLSCAASGFTFSRYVMSWVRQAPGKGLEWVASISSGGRMYYPDTVKGRFTISRDSAKNSLYLQMNSLRAEDTAVYYCARGSIYDGYYVFPYWGQGTLVTVSS VL: DIVLTQSPATLSLSPGERATLSCRASQSVSTSSYSYMYWYQQKPGQAPRFLIKYASNLESGIPARFSGSGSGTDFTLTISSLEPEDFAVYYCQHNWEIPFTFGGGTKVEIK |
